Experimental data taken from paper PMC2746992.

Assays:
Assay in all cases: spectrophotometric, decrease in A260
Conditions in all cases: 50 mM Tris-HCl, pH 7.5, 0.1 mM MnCl2, 25 °C
[1] = substrate: O=C(O)/C=C\C=C/C(=O)O; assay type: biochemical, Mycolicibacterium smegmatis
[2] = substrate: O=C(O)/C=C\C=C/C(=O)O; assay type: biochemical, Pseudomonas protegens
[3] = substrate: O=C(O)/C=C\C=C/C(=O)O; assay type: biochemical, Pseudomonas putida

B1: MLE-2 from Mycobacterium smegmatis (MLE-MS, anti-MLE) (Mycolicibacterium smegmatis MC2 155) (protein)
chain: MKIVAIGAIPFSIPYTKPLRFASGEVHAAEHVLVRVHTDDGIVGVAEAPPRPFTYGETQTGIVAVIEQYFAPALIGLTLTEREVAHTRMARTVGNPTAKAAIDMAMWDALGQSLRLSVSEMLGGYTDRMRVSHMLGFDDPVKMVAEAERIRETYGINTFKVKVGRRPVQLDTAVVRALRERFGDAIELYVDGNRGWSAAESLRAMREMADLDLLFAEELCPADDVLSRRRLVGQLDMPFIADESVPTPADVTREVLGGSATAISIKTARTGFTGSTRVHHLAEGLGLDMVMGNQIDGQIGTACTVSFGTAFERTSRHAGELSNFLDMSDDLLTVPLQISDGQLHRRPGPGLGIEIDPDKLAHYRTDN
[1]
  Km: (5.6 ± 1) × 10^-4 M
  kcat: 78 ± 6 s⁻¹
  kcat/Km: 140000 M⁻¹ s⁻¹

B2: MLE-1 from Pseudomonas fluorescens (MLE-PF, syn-MLE) (Pseudomonas protegens Pf-5) (protein)
chain: MHASAIESIETIIVDLPTIRPHKLAMHTMQNQTLVLIRLRCADGIEGLGESTTIGGLAYGNESPDSIKTNIDRFVAPLLIGQDASNINAAMLRLEQSIRGNTFAKSGIESALLDAQGKRLGLPVSELLGGRVRDALPVAWTLASGDTAKDIAEAQKMLDLRRHRIFKLKIGAGEVDRDLAHVIAIKKALGDSASVRVDVNQAWDEAVALRACRILGGNGIDLIEQPISRNNRAGMVRLNASSPAPIMADESIECVEDAFNLAREGAASVFALKIAKNGGPRATLRTAAIAEAAGIGLYGGTMLEGGIGTLASAHAFLTLNKLSWDTELFGPLLLTEDILAEPPVYRDFHLHVSKAPGLGLSLDEERLAFFRRD
[2]
  Km: (1.6 ± 0.2) × 10^-5 M
  kcat: 110 ± 2 s⁻¹
  kcat/Km: 7e+06 M⁻¹ s⁻¹

B3: MLE-1 from Pseudomonas putida (Pseudomonas putida) (protein)
chain: TSVLIERIEAIIVHDLPTIRPPHKLAMHTMQTQTLVLIRVRCSDGVEGIGEATTIGGLAYGYESPEGIKANIDAHLAPALVGLPADNINAAMLKLDKLAKGNTFAKSGIESALLDAQGKRLGLPVSELLGGRVRDSLEVAWTLASGDTARDIAEAQHMLEIRRHRVFKLKIGANPLAQDLKHVVAIKRELGDSASVRVDVNQYWDESQAIRACQVLGDNGIDLIEQPISRINRSGQVRLNQRSPAPIMADESIESVEDAFSLAADGAASIFALKIAKNGGPRAVLRTAQIAEAAGIALYGGTMLEGSIGTLASAHAFLTLRQLTWGTELFGPLLLTEEIVNEPPQYRDFQLHIPRTPGLGLTLDEQRLARFARR
[3]
  Km: (5.4 ± 0.5) × 10^-4 M
  kcat: 11 ± 0.5 s⁻¹
  kcat/Km: 20000 M⁻¹ s⁻¹
